In assay [1] the target is T1, iaspp_human PPP1R13L (UniProt Q8WUF5).
T1 sequence: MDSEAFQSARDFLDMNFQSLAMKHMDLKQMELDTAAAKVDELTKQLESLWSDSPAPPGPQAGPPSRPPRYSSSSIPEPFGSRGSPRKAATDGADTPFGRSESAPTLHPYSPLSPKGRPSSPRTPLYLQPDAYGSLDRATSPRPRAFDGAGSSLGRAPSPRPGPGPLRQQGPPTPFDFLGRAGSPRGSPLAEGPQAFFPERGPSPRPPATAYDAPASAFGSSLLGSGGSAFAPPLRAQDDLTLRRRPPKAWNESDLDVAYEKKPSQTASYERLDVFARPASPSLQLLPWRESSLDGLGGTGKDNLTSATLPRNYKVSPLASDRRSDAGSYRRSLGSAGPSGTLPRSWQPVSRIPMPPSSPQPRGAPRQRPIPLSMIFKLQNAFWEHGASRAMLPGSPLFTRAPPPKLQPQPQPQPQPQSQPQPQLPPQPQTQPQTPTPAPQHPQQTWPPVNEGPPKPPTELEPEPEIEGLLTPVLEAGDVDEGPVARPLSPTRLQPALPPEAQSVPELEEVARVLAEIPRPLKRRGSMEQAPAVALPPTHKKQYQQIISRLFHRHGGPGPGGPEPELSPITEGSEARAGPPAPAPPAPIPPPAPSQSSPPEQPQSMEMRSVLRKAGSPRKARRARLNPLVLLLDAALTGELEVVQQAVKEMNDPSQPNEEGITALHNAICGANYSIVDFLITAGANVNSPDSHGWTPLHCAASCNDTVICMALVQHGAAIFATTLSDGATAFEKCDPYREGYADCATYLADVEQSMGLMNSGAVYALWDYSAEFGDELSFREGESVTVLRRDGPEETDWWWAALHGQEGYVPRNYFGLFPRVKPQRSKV

Assay [2] addresses cdn2a_human CDKN2A (UniProt P42771).
Assay [3] deals with T1, iaspp_human PPP1R13L. The source holds these as a separate data set.
Assay [4] has as its target ikba_chick NFKBIA (UniProt Q91974).

Sequence of ikba_chick NFKBIA (Q91974 whole entry): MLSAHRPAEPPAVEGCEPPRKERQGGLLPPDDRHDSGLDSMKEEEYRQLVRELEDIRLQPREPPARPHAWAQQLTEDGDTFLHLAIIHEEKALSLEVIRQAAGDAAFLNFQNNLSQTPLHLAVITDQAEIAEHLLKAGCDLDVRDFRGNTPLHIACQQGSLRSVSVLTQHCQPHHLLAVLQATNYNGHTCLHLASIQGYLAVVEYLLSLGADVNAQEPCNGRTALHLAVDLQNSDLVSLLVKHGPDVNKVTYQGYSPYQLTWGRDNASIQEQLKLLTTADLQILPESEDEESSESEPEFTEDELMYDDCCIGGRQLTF

In the case of “GTP-binding nuclear protein Ran (Homo sapiens) (from UniProt P62826) Q69L”, the “effect of a mutation on the interaction” value in assay [1] and in assay [2] was “disrupting interaction strength” each time.

With “GTP-binding nuclear protein Ran (Homo sapiens) (from UniProt P62826) V187R;V188R”, the “effect of a mutation on the interaction” value in assay [3] and in assay [4] was “decreasing interaction strength” in each case.

As to “GTP-binding nuclear protein Ran (Homo sapiens) (from UniProt P62826) V188R”, the “effect of a mutation on the interaction” value in assay [4] is “decreasing interaction strength”.

For the origin of these results see IntAct's records for PubMed 24855949.
